Source: article PMC3195437 (Biochemical Journal, 2011)

B1: rHtrASA (recombinant, N-terminally truncated, proteolytically inactive HtrA of Synechocystis sp. PCC 6803, Ser296 replaced by alanine) (enzyme, UniProt P73354 94-452, looked up)
chain: SIAPANESLATNLQSRLSPREPSNFVVDVVESTGPAVVRINAQKTVKSQVPQAFNDPFLQRFFGSQMPPMPNERVQRGTGSGFIVSNDGKIFTNAHVVDGADEVTVTLKDGRSFPGRVMGSDPSTDVAVVKIEAGDLPTVALGDSDHLQVGEWAIAIGNPLGLDNTVTTGILSATGRRSADIGVPDKRVEFIQTDAAINPGNAGGPLLNADGQVIGMNTAIIQNAQGIGFAIPINKAQEIAQQLIATGKVEHAYLGIQMVTMTPELQSQIRQETGMNIPVDKGVVIMQVMPNSPAAIAKLEQGDVLQSLQGQPVENAEQVQSLVGKLAVGDEVELGILRNGQQQNLTVTIGALPSAPPQ
B2: rHhoBSA (recombinant, N-terminally truncated, proteolytically inactive HhoB of Synechocystis sp. PCC 6803, Ser258 replaced by alanine) (enzyme, UniProt P73940 51-416, looked up)
chain: SLTPAPVESNYRSALPLTLPRSAQDDQELNFIARAVQKIGPAVVRIDSERTAVSQGGPMGDQPFFRRFFGEEMPPNPDPREQGTGSGFILSSDGEVLTNAHVVEGASTVKVTLKDGSVLEGKVMGIDTMTDVAVVKVEAENLPVVEIGQSDRLQPGEWAIAIGNPLGLDNTVTVGIISALGRSSSEVGVPDKRVRFIQTDAAINPGNAGGPLLNAKGEVIGVNTAIRADAQGLGFAIPIQTAQNVAENLFTKGKMEHPYLGIHMVTLTPEMTKQLRTSGELPAGVTADTGVLIIQVSPGSPAAQAGLAPGDIILEVGGMGVKTATDVQERVEVSQIGEPLAIAVKRGQKPQMMAVRPGPFPEDLGQ

Biological target: the molecule itself
Test: SEC

Protein | stoichiometry N
B1 | 3
B2 | 3
